Patent US20170247475A1 (Boehringer Ingelheim, published 2017)
Where a chain is given by its changes, count along the chain named.

B1: VEGFBII87B07 (VHH)
VHH: EVQLVESGGGLVQPGGSLKLSCTASGFTFSTSWMHWVRQAPGKGLEWVSSIPPVGHFANYAPSVKGRFTISRDNAKNTLFLQMNSLKSEDTAVYYCAKDSAGRTKGQGTQVTVSS
B2: VEGFBII12E10 (VHH)
VHH: EVQLVESGGGLAQAGGSLRLSCTASGRTFNNYVMGWFRQAPGNEREFVAAITSTNGPTYYADSVKGRFTISGDNTKNKVFLQMDSLRPEDTAVYYCAIDEDLYHYSSYHYTRVALYHYWGQGTQVTVSS
B3: VEGFBII11C11 (VHH)
VHH: EVQLVESGGGLVQAGGSLMLSCAASGRALSSYAIGWFRQAPGREREFVARISWSGANTYYADSVKGRFTISRGNAKNTVYLQMNSLKPEDTAAYYCAAQTTSKYDNYDARAYGYWGQGTQVTVSS
B4: VEGFBII12B01 (VHH)
VHH: EVQLVESGGGLVQPGGSLRLACAASGFTLSSSWMYWVRQAPGKGLEWVSRISPGGLFTYYVDSVKGRFSVSTDNANNTLYLQMNSLKPEDTALYSCAKGGAPNYTPRGRGTQVTVSS
B5: VEGFBII39H11 (VHH)
VHH: EVQLVESGGGLVQAGGSLRLSCAASGRTFSAYDMGWFRQAPGKEREFVAVISWTGGMTYYADSVKGRFTISRDKAKNTVSLQMNSLKPEDTAVYYCAVDRRRTYSRWRYYTGVNEYEYWGQGTQVTVSS
B6: VEGFBII38A06 (VHH)
VHH: B5 VHH with T54S, K74N, S80Y, T103L, E115D, E117D
B7: VEGFBII42F10 (VHH)
VHH: B5 VHH with T54S, Y59D, D73E, K74N, V79Q, S80F, D99G, T103A, E117D
B8: VEGFBII37F09 (VHH)
VHH: B5 VHH with A14T, T54S, K65Q, K74N, N77S, S80Y, L86P, T103A, E115D, Y118F
B9: VEGFBII41D11 (VHH)
VHH: B5 VHH with V5M
B10: VEGFBII41B06 (VHH)
VHH: B5 VHH with G56D, V98A
B11: VEGFBII36C08 (VHH)
VHH: B5 VHH with G55N, G56S, K74N, S80Y, Y109F, E115D, E117D
B12: VEGFBII86G10 (VHH)
VHH: EVQLVESGGGLVQAGGSLRLSCAASGRTFNTYTMGWFRQTPGTEREFVAAIRWTVNITYYADSVKGRFTISRDIVKNTVYLQMNSLKPEDTAVYYCAAQTSAPRSLIRMSNEYPYWGQGTQVTVSS
B13: VEGFBII08E07 (VHH)
VHH: EVQLVESGGGLAQAGGSLRLSCTTSGLTFSSYYMGWFRQAPGKEREFVATISWNKISTIYTDSVKGRFTVSRDNNKNTVYLQMNSLKPEDTAVYYCAADASRPTLRIPQYWGQGTQVTVSS
B14: VEGFBII09A09 (VHH)
VHH: EVQLVESGGGLVQPGGSLRLSCVASGIRFMSMAWYRQAPGKHRELVARISSEGTTAYVDSVKGRFTISRDNSKNTVYLQMNSLKAEDTAVYYCNTFSSRPNPWGAGTTVTVSS
B15: VEGFBII08E06 (VHH)
VHH: EVQLVESGGGLVQPGGSLRLSCAASGSIVRSDVMGWYRQAPGKQRELVAFIRSLGSTYYAGSVKGRFTISRDDAANTVYLQMNNLKPEDTAVYYCNARFSGESYWGQGTPVTVSS
B16: VEGFBII12C04 (VHH)
VHH: B15 VHH with D73N
B17: VEGFBII88A02 (VHH)
VHH: EVQLVESGGGLVQAGGSLRLSCAASGFTFGDYDIGWFRQAPGNEREGVSCITTDVGTTYYADSVKGRFTISSDNAKNTVYLQINDLKPEDTAIYYCAVDTQDLGLDIFCRGNGPFDGWGQGTQVTVSS
B18: VEGFBII88E02 (VHH)
VHH: EVQLVESGGGLVQPGGSLRLSCVASGFRLDDYAIGWFRQAPGKEREAVSCISSSDTSIDYTNSVKGRFTFSRDNAKNTVYLQMNSLKPEDTAVYYCAAAFRCSGYELRGFPTWGQGTQVTVSS
B19: VEGFBII04B08 (VHH)
VHH: EVQLVESGGGLVQPGGSLRLSCAASGSAVGDITVAWYRQAPGIQRQLVATITPSGYTYYWDFVKGRFTISRDNSKNIVYLQMNSLKPEDTAAYYCNTQFYWGQGTQVTVSS
B20: VEGFBII16F11 (VHH)
VHH: EVQLVESGGGLVQAGGSLRLSCAASGRTSSGYDMGWFRQAPGKEREFVTAITWSGGSTYSPDSVKGRFTISRDNAKNTVYLQMNNLTPEDTAVYYCASGRIWRSRDYDSEKYYDIWGHGTQVTVSS
B21: VEGFBII09D05 (VHH)
VHH: EVQLVESGGGLVQPGDSLRLSCAASGLSFSRYGMGWFRQAPGKEREFVIAISEYDNVYTADSVRGRFTISRDNSKSTVYLQMNSLKSEDTAVYYCAASPTILLSTDEWYKYWGRGTQVTVSS
B22: VEGFBII86G08 (VHH)
VHH: EVQLVESGGGLMQTGDSLRLSCAASGLRFTSTNMGWFRQGPGKEREFVAAITLSGTTYYAEAVKGRFTISRDNDKNTVALQMNSLKPEDTAVYYCGADPSYYSTSRYTKATEYDYWGQGTQVTVSS
B23: VEGFBII12A07 (VHH)
VHH: EVQLVESGGGLVQAGGSLRLSCSVTGRTFNKYVMGWFRQAPGNDREFVAAITSRDGPTYYADSVKGRFTISGDNTKNKIFLQMNSLMPEDTAVYYCAIDEDLYHYSSYHFTRVDLYHYWGQGTQVTVSS
B24: VEGFBII11G09 (VHH)
VHH: EVQLVESGGGLVQAGGSLRLSCAASTSIYSITVMAWFRQAPGKEREFVAAITWSAPTTYSADSVKGRFTISRDNAKNTVYLQMNSLKPEDSAIYYCAADRFKGRSIVTRSDYRYWGQGTQVTVSS
B25: VEGFBII11F10 (VHH)
VHH: B24 VHH with T57S, T58S, S60Y, M83V
B26: VEGFBII07A03 (VHH)
VHH: B24 VHH with R45S, T57S, T58S, S60Y, R113K
B27: VEGFBII07A06 (VHH)
VHH: B24 VHH with A24V, T32S, E46A, S60Y, M83T
B28: VEGFBII08F07 (VHH)
VHH: EVQLVESGGGLVQAGGSLRLSCAVSGSTFGLYAMGWFRQAPGREREFLSAITWSAGDTQYADSVKGRFTISRDNARNTVNLQMNGLKPEDTAVYYCAGRQWGGTYYYHGSYAYWGQGTQVTVSS
B29: VEGFBII12G04 (VHH)
VHH: B28 VHH with A14S, G16D, S27N, L48V, Y113W
B30: VEGFBII86C11 (VHH)
VHH: EVQLVESGGGLVQAGDSLRLSCTASGRTFNSYAMGWFRQAPGKERESVAHINRSGSSTYYADSVKGRFTISRDNAKNTVYLQLNSLKPEDTAVYYCAAGRYYSSDGVPSASFNYWGQGTQVTVSS
B31: VEGFBII88A01 (VHH)
VHH: KVQLVESGGGLVQAGGSLRLSCAASERTFSNYAMDWFRQAPGKEREFVAAITRSGGGTYYADSVKGRFTISRDNAKNTVYLQMNSLKPEDTAVYYCAATRSSTIVVGVGGMEYWGKGTLVTVSS
B32: VEGFBII09F05 (VHH)
VHH: EVQLVESGGGLVQAGGSLRLSCAASGRTFSTDDVGWFRQAPGKEREFVAVIRWSTGGTYTSDSVKGRFTLSRDNAKNTMYLQMNSLKPEDTAVYYCAARSRPLGAGAWYTGETRYNYWGQGTQVTVSS
B33: VEGFBII16C03 (VHH)
VHH: B32 VHH with G8E, T113N, R114Y
B34: VEGFBII09A12 (VHH)
VHH: B32 VHH with K65A, N116D, Y117S
B35: VEGFBII88B02 (VHH)
VHH: EVQLVESGGGLVQPGGSLRLSCTASGLNLDDYAIGWFRQAPGKEREGVSCISSYDSVTYYADHVKGRFTISRDSAKNTLYLQMNSLSIEDTGVYYCAAEREQLRRRESPHDELLRLCFYGMRYSGKGTLVTVSS
B36: VEGFBII86G11 (VHH)
VHH: EVQLVESGGGLVQAGGSLRLSCAASGLTFSLYTVGWFRQAPGKEREFVAYISRSGSNRYYVDSVKGRFTLSRDNAKNTVDLQMNSLKTEDTAVYYCAATSRGLSSLAGEYNYWGRGTQVTVSS
B37: VEGFBII86F11 (VHH)
VHH: EVQLVESGGGLVQAGDSLRLSCFTSARTFDTWAMAWFRQAPGKEREFISAISWSGSMTYYTDSVKGRFIISRDNAQNTLFLQMNNTAPEDTAVYYCAAKTVDYCSAYECYARLEYDYWGRGAQVTVSS

Molecular target: T1, recombinant human VEGF165 (human, UniProt P15692-4 27-191)
T1 construct: also called hVEGF165; rhVEGF165
T1 sequence (P15692 other isoform, or with tags, fused parts or gaps limits assumed): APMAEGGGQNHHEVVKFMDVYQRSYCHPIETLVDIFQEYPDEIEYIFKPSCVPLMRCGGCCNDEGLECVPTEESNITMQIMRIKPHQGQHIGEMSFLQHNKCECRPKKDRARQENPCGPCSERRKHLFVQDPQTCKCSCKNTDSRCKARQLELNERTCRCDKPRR
Assay: ELISA screen, periplasmic extract on coated hVEGF165
Description: Wells are blocked with a casein solution (1%). After addition of typically a 10-fold dilution of the periplasmic extracts, VHH binding is detected using a mouse anti-myc (Roche) and an anti-mouse-HRP conjugate (DAKO). Clones showing ELISA signals of >3-fold above background are considered as VEGF binding VHHs.

Binder | binding result
B1 | binds
B2 | binds
B3 | binds
B4 | binds
B5 | binds
B6 | binds
B7 | binds
B8 | binds
B9 | binds
B10 | binds
B11 | binds
B12 | binds
B13 | binds
B14 | binds
B15 | binds
B16 | binds
B17 | binds
B18 | binds
B19 | binds

Binder | binding result
B20 | binds
B21 | binds
B22 | binds
B23 | binds
B24 | binds
B25 | binds
B26 | binds
B27 | binds
B28 | binds
B29 | binds
B30 | binds
B31 | binds
B32 | binds
B33 | binds
B34 | binds
B35 | binds
B36 | binds
B37 | binds
